Laboratory results as given in patent US20150004190A1 (INSTITUT NATIONAL DE LA SANTE ET DE LA RECHERCHE MEDICALE …, published 2015).

B1: 2F5 IgA2 (antibody, V domains shown)
VH: RITLKESGPPLVKPTQTLTLTCSFSGFSLSDFGVGVGWIRQPPGKALEWLAIIYSDDDKRYSPSLNTRLTITKDTSKNQVVLVMTRVSPVDTATYFCAHRRGPTTLFGVPIARGPVNAMDVWGQGITVTI
VL: ALQLTQSPSSLSASVGDRITITCRASQGVTSALAWYRQKPGSPPQLLIYDASSLESGVPSRFSGSGSGTEFTLTISTLRPEDFATYYCQQLHFYPHTFGGGTRVDVR
B2: 2F5 IgG1 (antibody, V domains shown)
VH: B1 VH
VL: B1 VL

Columns and labels:
Assay in all cases: cell-based or functional assay
[1] = target: HIV-1 JR-CSF envelope (on virions) (HIV-1 JR-CSF (clade B, R5 tropic), UniProt P20871 32-848)
[2] = target: T1, HIV-1 R5 tropic QH0692.42 envelope (on pseudovirus) (HIV-1 QH0692.42)
[3] = target: T1, HIV-1 R5 tropic QH0692.42 envelope (on …); remark: listed apart in the source

Row | Binder | IC50 times lower than 2F5 IgG1, CEM-CCR5+ neutralization [1] [fold] | IC99 times lower than 2F5 IgG1, CEM-CCR5+ neutralization [1] [fold] | IC50 times lower than that of 2F5 IgG1, TZM-bl assay [2] [fold] | IC90 times lower than that of 2F5 IgG1, TZM-bl assay [2] [fold] | IC50%, neutralization of envelope pseudotyped HIV-1 in TZM-bl assay (luciferase) [3] [nM]
1 | B1 | 33 | 20 | 8.33 | 23.8 | 0.024
2 | B2 | – | – | – | – | 0.2
